The source of these data is patent US10597649B2, “Tau protease compositions and methods of use” (Oligomerix, Inc., priority 2011, dated 2020).

A short description of data set [1]: Tau protease enzymatic activity of truncated tau peptides (general statement). The format is biochemical.
Data set [2] concerns Tau 4R2N (amino acids 335-353) peptide substrate. Briefly: Peptide digest HPLC assay of tau protease activity. The format is biochemical, human. Conditions: oligomerized truncated tau, 37° C., overnight (TP-210) or 44 hr (TP-99). From the text: N-terminal sequencing of fragments using mass spectrometry identified autoproteolytic cut sites. In particular, cutting at the Lys340-Ser341 (340KS341) cut site occurred readily. Therefore, a 19-amino acid peptide corresponding to amino acids 335G to 353L of tau protein was synthesized that contained the KS cut site (340KS341). The reaction was monitored by reverse-phase high-pressure liquid chromatography (HPLC). […] An asterisk marks a non-specific contaminant that was used as a marker. […] 10 μg of tau peptide 335-353 ([…]) (SEQ ID NO:19) was custom synthesized by Genscript (Piscataway, N.J., USA) and 1 mg was dissolved in 1 mL of buffer (25 mM Tris-HCl pH 7.4). […] 32Karat™ LC-CE System, Beckman Coulter, Inc., (Indianapolis, Ind.)] using a linear gradient of acetonitrile in 0.1% TFA 0-60% acetonitrile on an analytical C18 column (12.5 cm×2.1 mm, 5 μm, (Supelco, Bellefonte, Pa., USA). 30 μg of peptide was incubated without tau protease as a negative control and analyzed with the same method;
Cleavage of the peptide substrate for tau protease, Tau 4R2N (amino acids 335-353) […] (SEQ ID NO.19), was used to monitor activity using reverse-phase HPLC. […] The large peak in the lower trace indicated intact peptide was greatly diminished in the upper trace and replaced with two smaller peaks F1 and F2 that represent fragments generated by TP-210. […]

A further data set deals with tau FRET peptide. Briefly: FRET assay of tau protease activity. Conditions: 10, 25 or 50 μg oligomerized protein, 2.5 μg FRET peptide, 17 hrs at 37° C. The class given is biochemical. From the text: The FRET assay peptide substrate is composed of nine amino acids surrounding the autoproteolytic cut site after Lys 340 in tau 4R2N with the fluorescent molecule methylcoumarin (MCA) at the amino terminus and the fluorescence quenching molecule dinitrophenol (DNP) at the C-terminus using an additional Lys at the C-terminus to conjugate it to the peptide: MCA-[…]-{Lys(DNP} (SEQ ID NO:18). The concept is that when tau protease cuts the peptide the quench is dissociated from the fluor such that there is a detectable increase in the fluorescence signal in the assay. This assay can be used to monitor tau protease activity to screen small molecule compounds, peptides or antibodies that modulate tau protease activity. This assay can also be used to characterize enzyme kinetics and optimize the buffer conditions for tau protease. […]
A FRET assay was conducted to determine if the Tau 4R2N 260-340 construct has protease activity using the tau FRET peptide described in FIG. 22 and FIG. 23. […] To determine the background values for the wells of the 96-well plate 95 microliter of buffer was added to the wells of a black 96-well Microfluor I plate (ThermoFisher Scientific) and an EnVision plate reader was used to determine signal (as described in FIG. 23). 5 μL of each sample was mixed with the buffer in the wells and the signal was determined. […]

B1: TP-99: 99-amino acid fragment of tau 4R2N, amino acids 241-340, plus initiating methionine (SEQ ID NO:3) (protein)
chain: MRLQTAPVPMPDLKNVKSKIGSTENLKHQPGGGKVQIINKKLDLSNVQSKCGSKDNIKHVPGGGSVQIVYKPVDLSKVTSKCGSLGNIHHKPGGGQVEVK
For the molecule B1, the “tau protease enzymatic activity” value in data set [1] is given as “retain tau protease enzymatic activity”. In addition, in data set [2], the “protease activity on tau peptide 335-353 (HPLC)” value was “showed protease activity”.

B2: TP-83: 83 amino acid truncated tau peptide, 4R2N 258-340 (SEQ ID NO:4) (protein, listed as Homo sapiens)
chain: MSKIGSTENLKHQPGGGKVQIINKKLDLSNVQSKCGSKDNIKHVPGGGSVQIVYKPVDLSKVTSKCGSLGNIHHKPGGGQVEVK
B2: the “tau protease enzymatic activity” value in data set [1] is “retain tau protease enzymatic activity”.

B3: TP-210: 210-aa fragment of tau protein, amino acids 131-340 of tau 4R2N plus initiating methionine (SEQ ID NO:1) (protein, listed as Homo sapiens)
chain: MSKDGTGSDDKKAKGADGKTKIATPRGAAPPGQKGQANATRIPAKTPPAPKTPPSSGEPPKSGDRSGYSSPGSPGTPGSRSRTPSLPTPPTREPKKVAVVRTPPKSPSSAKSRLQTAPVPMPDLKNVKSKIGSTENLKHQPGGGKVQIINKKLDLSNVQSKCGSKDNIKHVPGGGSVQIVYKPVDLSKVTSKCGSLGNIHHKPGGGQVEVK
With B3, the “tau protease enzymatic activity” value in data set [1] was “retain tau protease enzymatic activity”. In data set [2], the “protease activity on tau peptide 335-353 (HPLC)” value is “retained proteolytic activity”.

B4: TP-81: 81 amino acid truncated tau peptide, 4R2N 260-340 (SEQ ID NO:5) (protein, listed as Homo sapiens)
chain: MIGSTENLKHQPGGGKVQIINKKLDLSNVQSKCGSKDNIKHVPGGGSVQIVYKPVDLSKVTSKCGSLGNIHHKPGGGQVEVK
Take B4: the “cutting of tau FRET peptide” value in the data set with tau FRET peptide is “cuts tau FRET peptide”. Also, the “tau protease enzymatic activity” value in data set [1] is recorded as “retain tau protease enzymatic activity”.
